In publication PMC11710176 (Alzheimer's & Dementia, 2024):
Where “and” joins values, the source holds several entries; their conditions need not be identical. Identical values can stand only once.

Target: tau oligomers (UniProt P10636 1-758)
Test: SPR; who was immobilised and the conditions not given
Conditions: both partners purified

B1: cellular prion protein (natural protein)
chain: not shown
notes: also called PrP^C; PrPC
Kd: 20 nM and 50 nM
